Test results: the supplement of paper PMC12042874
± gives the uncertainty stated by the source.

assay: amyloid nucleation score (Sup35N fusion, yeast selection) (log enrichment); library NNK1; higher = more nucleation; inactive = no reads after selection
Outline: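 Output and input plasmid inserts were sequenced by Illumina after psi-negative yeast carrying Sup35N fused to peptides of 20 random codons had been induced 24 hours with 100 μM copper sulfate and grown 7 days at 30°C on medium lacking adenine and uracil. The nucleation score is the DiMSum log enrichment of output over input reads, centred on the mode score of non-aggregating sequences. Sequences with under 100 input reads were excluded.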

Substance | amyloid nucleation score
WQSCWIWTKCRTVDVRRKKD | -0.598 ± 0.43
WRCRGCMWAHRAWGNSSCV | -0.655 ± 0.98
WRICLQCRAYPLRTTGGQRQ | 0.444 ± 0.69
WRIEACFSNFARTIFLVSGW | -0.399 ± 0.3
WRMFGGRSEQSFIVPCRLLG | 0.535 ± 1.2
WRWYEGGLTLSWSHASSA | -0.536 ± 0.98
WSATSATMLQSLPVQEEHVD | -0.38 ± 0.83
WSCCAEERVTWGPAEMLLWG | -1.05 ± 2.7
WSDYVDNPSVSARRSRQFRL | -1.21 ± 1.6
WSFTK | -0.284 ± 0.68
WSKCNVRMCWH | -0.122 ± 0.64
WSLLCDCASGQCVMR | 0.005 ± 0.44
WSLPAVRRCHNELEYCNTRR | 0.107 ± 0.34
WSRMGLAILRFFKYLS | 0.093 ± 0.36
WSTHRQESFALYSKCMEVRR | 0.186 ± 0.28
WTLRYRSARLVACMINTDEM | 1.68 ± 0.46
WTSIV | 1.38 ± 0.47
WTVSSVIGNGWQCNRSYG | 0.247 ± 0.27
WVAWTYMENLSCLYFETATM | -0.593 ± 0.57
WVGQVLGREENCASASSFSE | -1.89 ± 2.7
WVHMFMHDYNMRYTFSVYMC | inactive
WVLTVVFVDKWREAYMYATF | inactive
WVQGRRTFLVGWRGSQRGPI | -0.995 ± 0.81
WVTSSAFEE | 0.277 ± 0.7
WWGWKIDTNAQILARLCKCL | -0.005 ± 1.2

Substance | amyloid nucleation score
WWLFHVFLLKRQSITNAGVR | inactive
WWYYNRRWLVTCKSVYGLGM | -0.34 ± 0.37
WYGDSPECEV | 0.141 ± 0.73
WYQLVVVEQGSTLYS | 0.341 ± 0.68
WYRTRIQRRIFFNRAIYSTA | 0.368 ± 0.85
YALGVAFSQNSYDT | 0.669 ± 0.63
YCAKNCEGFGRVYISG | -2.42 ± 2.7
YCFSSSYVWHNRDGSINMFK | inactive
YCIYVGFDLMCLSVWNGHRS | -1.39 ± 0.66
YCLDGAFALVVNSLWLITAA | inactive
YCTCRLVKFEVDW | inactive
YCVTSMVRRLVKMLYDCRGV | inactive
YDHCEGCWMSNRMWELGWKG | 0.048 ± 0.33
YDIGFVI | -0.067 ± 0.28
YDKFFGVSIDDR | 0.038 ± 0.59
YDLRNICTSTLMSHVNRFYV | -1.22 ± 0.83
YDQGVPTDVLILIAIEHQLS | 5.53 ± 0.077
YDTNDGFMTGVQ | -1.56 ± 1.3
YELTRIR | 2.38 ± 0.17
YFDRNFARYFCYRVTTT | 1.48 ± 0.2
YFFDIGVDSCMRFDIRVVET | 1.77 ± 0.6
YFFFYYYVVTIRKLLHVMGT | -0.854 ± 0.63
YFGYRCDYRCNPPLAPLCAN | 0.515 ± 0.43
YFKAMEVTFSFWH | 0.491 ± 0.23
YFKEFWIWLW | inactive

Substance | amyloid nucleation score
YFRVLGN | -0.011 ± 0.3
YFSDKVSSAFT | 0.318 ± 0.37
YFSTRKYTSKGYCVRTLFAY | -0.406 ± 0.27
YFTNPRCRLDAHGGFANQWW | -0.977 ± 1.4
YFVFFLRDLFWRRKI | 0.408 ± 0.41
YFVLKCSC | 2.05 ± 0.49
YFWASHISSVYLNLETCDTM | -0.417 ± 0.42
YFYDTWGA | -0.235 ± 0.47
YFYFLVNISFISIKGCLFMP | 0.121 ± 0.4
YFYTSHFSLLTSTQFIYRLG | 0.392 ± 0.33
YGDGMGPWCYCWAFAEPRRS | 0.114 ± 1.1
YGFSNYRMIVQLYNLFSMYD | 3.04 ± 0.21
YGGLEVSLGALQNVGVKPYT | -0.189 ± 1.1
YGHLDPFTKLWSLWGIIMNW | inactive
YGHLTAGGCWSGQTNNARLG | -0.488 ± 0.9
YGISVMIYDRPAISACQIKH | 2.71 ± 0.11
YGLPLWCNMCSRSANRC | 0.365 ± 0.48
YGRATIWNYKSSMDGPKNGK | inactive
YGRSP | 0.597 ± 0.46
YGTNRSWGDMEKISSHKRCW | -0.321 ± 0.34
YHCLWGFVGVLKSDSLRDRR | 0.602 ± 0.38
YHDVGSAVRMLYQMGPKRVF | -0.442 ± 1.4
YHILGCKIVNVIDTALGPWL | 5.8 ± 0.06
YHIMGFSSYGGVVRWMSS | -0.312 ± 0.36
YHNFNSV | 0.164 ± 0.34

Substance | amyloid nucleation score
YHSWECLHRTANIIWEYFRD | -0.019 ± 0.81
YIDEIY | -0.759 ± 0.35
YIDVFVSRVLHSGFERSDVV | 0.745 ± 0.2
YIHDQIIALFKQDLFSGSLH | 0.961 ± 0.69
YIKAGLFGCYMVAGGAYNPV | 1.58 ± 0.31
YILACAKVTEDPVSVSMKCA | -0.278 ± 0.74
YILKGNYLYRRVQLDLRTRR | -0.244 ± 0.28
YILSSLPFRHLLGVNICFTA | -0.364 ± 0.31
YIMFDVLLTDKRPSSSVCSC | 3.41 ± 0.069
YIQLVI | -0.279 ± 0.32
YIVPQLT | 1.47 ± 0.81
YIWAFLVGFVLTHYCSPHPD | -1.07 ± 0.68
YIYNWRYN | 1.71 ± 0.54
YKANCVETLSWSFGHNFFLR | -0.481 ± 0.49
YKASG | 0.794 ± 1.1
YKCVYFGMETAVGNTAQERP | 0.861 ± 0.77
YKHWLYKLSCLEARSEYCGF | 0.444 ± 1.1
YKSNKWSPSQKRKG | -1.37 ± 2.7
YKSSILPTEFGFACKPWGHL | 0.3 ± 0.55
YKSVRSVVWWCLRNSLHFVW | 1.91 ± 0.6
YKVNNFKTFSLWNMFLDSNC | 4.47 ± 0.064
YLAKISSHDPGIAMMEMTGR | 0.315 ± 0.35
YLAQL | 0.558 ± 0.43
YLAWNM | 1.8 ± 0.34
YLCPVRDFNGLYGLVFM | -0.756 ± 1.7

Substance | amyloid nucleation score
YLFGGSWDCGLYISGIPCWS | 1 ± 0.48
YLFTYRRVTWGSTLQS | 1.65 ± 0.48
YLIDSSTPDFR | 0.314 ± 0.3
YLLPEPKQCVSPE | 0.625 ± 0.5
YLLTHQRKTSLQE | 1.06 ± 0.97
YLPVYNY | 0.487 ± 0.65
YLQEWRIGRVGCVGFTCRCR | 0.279 ± 0.45
YLRFTV | 2.57 ± 0.27
YLRKIRVLNMGAAAEKALLG | 0.641 ± 0.68
YLRLKKMSVGVWGVIDRCLV | 0.995 ± 0.51
YLRPGCSSVRSNATMGNSYL | 0.641 ± 0.45
YLWLYVLSRTWVFNKHPSPI | -0.543 ± 0.41
YMCHKRAFV | 3.32 ± 0.12
YMDVTGDVK | -0.067 ± 0.85
YMGHDC | 0.011 ± 0.21
YMNIVDVLAWGDRWVLLVWK | 0.425 ± 0.48
YMNNRLRWNRRHPYLSCFMS | 1.1 ± 0.94
YMNTFVIRSMHSLLNGYAFS | 0.429 ± 0.88
YMRRVLPRCHPIWNGFPFAR | 0.254 ± 0.93
YMTWL | 0.676 ± 0.44
YMVYILSVCDLRFLWTRSGG | -0.053 ± 0.49
YNCFMFAMFARSDSYMGIAS | 0.597 ± 0.26
YNDMVICSTTDGTLSYCRHF | 0.329 ± 0.26
YNEERGCSAC | -0.209 ± 0.33
YNFFGCVCDAPPPKCLVYFM | 7.596 ± 0.075

Substance | amyloid nucleation score
YNGGLRVMICLPECLLFSLI | -0.246 ± 0.49
YNGVCSNW | 0.13 ± 0.48
YNHIEFGWCLLVGFVMRKSR | 3.53 ± 0.12
YNIVMMDS | 0.108 ± 0.36
YNLRMDGVCGTVLRYVVEGR | -0.403 ± 1.4
YNMNFVSLVLGARRVYALSM | 3.62 ± 0.12
YNRIIYYCGVM | 0.782 ± 0.97
YNSRRAWDACCFGLVPLWEC | 2.08 ± 0.3
YPLFCNDHVGSSTLRRR | -0.065 ± 0.35
YPRPLWANRRPC | -0.151 ± 0.66
YPSIGLRVLLNYCDPTDTGA | 0.255 ± 1.2
YPVVHDM | -0.426 ± 0.56
YQKTNPMELWLPSL | inactive
YQQSCWVLYGTNLRYSNQSW | 1.74 ± 0.14
YQTGYGGCGYCRLVRGCVKV | -0.442 ± 0.33
YQVPKKVAATIGTAWARKRA | 0.279 ± 0.29
YRCNT | -0.244 ± 0.32
YRDFGGN | 0.076 ± 0.24
YRDTVGVYYRFIRGYWMCTW | -0.396 ± 0.42
YREEEILRVVNLTIFAGPGM | -0.55 ± 0.39
YRFQTSISNCYSAERDWGT | 1.37 ± 0.42
YRLDFGWTMH | 0.3 ± 0.31
YRSFAYEGSSRIGG | -0.022 ± 0.38
YRSSGWRNTSSRAVLCCLDE | -0.356 ± 0.38
YRVYRRLSV | 0.526 ± 0.45

Substance | amyloid nucleation score
YSARLLSERIKWHFTLMMND | 0.41 ± 0.36
YSESVCSLLPQYSPVHPLFT | 0.891 ± 0.97
YSGHWLVHLPCHHQVR | -0.028 ± 0.46
YSKIRNKSRFRNLSASFQRC | inactive
YSLSNVEGYYTYYYRT | -0.071 ± 0.28
YSLYTNSHVPAWHSPSISHG | -0.38 ± 0.82
YSMSRMIIKVKLQRHVMNYS | -0.88 ± 0.73
YSRISKRVSRKGQSRNCHSG | -0.413 ± 0.52
YSRYYVNVVWFLGKLRS | 0.012 ± 0.37
YSSGYLWFFIGTS | -1.38 ± 1.7
YSSICGSKLLRSGGCRGVGH | -0.083 ± 0.49
YSTSSEVEVDWLSVSKFVSI | 0.146 ± 0.27
YSVQIMSKNITWVKVCPASK | 5.19 ± 0.071
YSVSCSVF | -0.341 ± 0.31
YTAACTRSNCYMCPVSAVGW | 0.214 ± 0.86
YTFGWLLIKPHLRPAFKPHR | -1.75 ± 2.7
YTIGTRPTMLRLFGVLRWAG | 1.19 ± 0.43
YTMRGASRSTTDLLKIMIYM | -2.83 ± 2.4
YTPGSGVLRAGTADQLMRNF | 0.522 ± 0.63
YTRMICGSMMGGVMREMRIM | 0.739 ± 0.36
YTTVVQF | 0.064 ± 0.23
YVCDKFYGNAQCF | 0.644 ± 0.4
YVCGGWCVRVVRQVGYVNL | 0.421 ± 0.55
